# Assay results as given in patent publication US9822156B2, “Amyloid beta expression constructs and uses therefor” (Whitehead Institute for Biomedical Research, priority 2014, dated 2017).
# B1: Aβ42-Arctic-4X: doxycycline-inducible construct, insulin signal peptide and four copies of Aβ42 E22G, SEQ ID NO:37 (protein)
# chain: MALWMRLLPLLALLALWGPDPAAADAEFRHDSGYEVHHQKLVFFAGDVGSNKGAIIGLMVGGVVIARRDAEFRHDSGYEVHHQKLVFFAGDVGSNKGAIIGLMVGGVVIAKRDAEFRHDSGYEVHHQKLVFFAGDVGSNKGAIIGLMVGGVVIARRDAEFRHDSGYEVHHQKLVFFAGDVGSNKGAIIGLMVGGVVIA
# How the values were obtained:
# 293T cells = test: TOXILIGHT cytotoxicity assay in stable doxycycline-inducible poly-Aβ 293T cell lines; type: cell-based; conditions: 72-96 hours following doxycycline induction
# Text: Similar to the poly-Aβ (Aβ40 or Aβ42_1X/4X/6X/8X) expression constructs in yeast (see Example 1), a poly-Aβ toxicity model was developed in mammalian cells. Stable cell lines with chromosomally-integrated tetracycline (doxycycline)-inducible […] transgenes (Aβ42-4X, Aβ42-6X, Aβ40-4X, Aβ40-6X and Aβ42-Arctic-4X) linked to an N-terminal insulin signal peptide were generated (FIGS. 13A-13B). These expression constructs were generated using the pLix402 lentiviral plasmid (FIG. 12). The poly-Aβ constructs were individually transfected into 293T cells along with the lentiviral packaging plasmid psPAX and the viral envelope-expressing plasmid mMD2.G using LIPOFECTAMINE® 2000 (Invitrogen) transfection reagent to generate lentivirus containing the poly-Aβ transgene. The virus was harvested from the supernatant of transfected 293T cells 2 and 3 days post-transfection and subsequently purified and concentrated using the LENTI-X™ Maxi Purification kit (Clontech) according to the manufacturer's instructions.
# To generate stable cells harboring the expression transgene for the poly-Aβ constructs, 293T cells were infected using POLYBRENE® infection reagent (Sigma Aldrich), which is used to introduce retroviral vectors into mammalian cells. Infected cells were then selected using puromycin (2-10 μg/ml). Infected cells harboring the transgene survive this selection pressure whereas the control cells without the transgene die in 2-3 days. Aliquots of the selected cells were frozen in liquid nitrogen or maintained and propagated for further applications.
# Expression of Aβ peptide from these stable cell lines was measured in the culture supernatant 72-96 hours following doxycycline induction (FIG. 13D). Toxicity was measured 72-96 hours following doxycycline induction using a TOXILIGHT™ cytotoxicity assay (Lonza) as described in Example 2.
# [1] = test system: Rat embryonic cortical neurons; test: […] ATP viability assay in neurons infected with lentiviral poly-Aβ constructs; type: cell-based; conditions: three weeks post doxycycline-induction (2 μg/ml)
# Text: Rat embryonic cortical neurons were infected with lentiviral poly-Aβ expression constructs to model poly-Aβ toxicity. Tetracycline (doxycycline)-inducible poly-Aβ (Aβ42-4X, Aβ42-6X, Aβ40-4X, Aβ40-6X, and Aβ42-Arctic-4X) viral constructs described in Example 5 were used to express poly-Aβ constructs in rat cortical neurons. In each expression construct, the poly-Aβ coding sequence is linked to an N-terminal insulin signal peptide. The poly-Aβ expression plasmids were packaged in lentiviral particles, which were generated by 293T cells as described in Example 3.
# Rat cortical neurons were enriched from cortices dissected out of embryonic (E18) rat brains and enriched in adherent monolayer culture as described in Example 3. Purified lentiviral preparations at different MOI were used to infect these cortical neurons to express poly-Aβ transgenes. Three days post-infection, expression of poly-Aβ was induced by adding doxycycline (2 μg/ml) to the infected cultures.
molecule,measurement,setting,value
B1,"Aβ peptide-mediated cytotoxic effect (adenylate kinase release), rank order",293T cells,Aβ42-6X≧Aβ42-Arctic-4X≧Aβ42-4X≧AB40-6X≧Aβ40-4X
same,cytotoxicity (viability by ATP levels),[1],profound cytotoxicity compared to Aβ40-4X
